Here are results for 49 molecules from US20170165337A1 (IMMATICS BIOTECHNOLOGIES, published 2017).

This experiment has as its target T1, HLA-A*02:01 (human).
T1 construct: MHC class I monomer of the UV-ligand exchange assay; also called peptide-receptive MHC molecules; MHC class I
The experiment can be described thus: UV peptide-exchange ELISA. The gist of the method:
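Peptide-MHC complexes formed by UV-mediated exchange of a UV-cleavable peptide for the test peptide; exchange yield quantified by β2m ELISA. Diluted 100-fold, captured on streptavidin-coated plates 1 h at 37 °C, detected with HRP anti-β2m and TMB at 450 nm against refolded HLA-A*02:01 monomer standards (15-500 ng/ml).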
On the technique in general: In an ELISA, binding on a coated surface is turned into a signal by an enzyme label.
For the molecule GLPSFLTEV, the peptide exchange yield lay in the range of 50 to 75%.
Consider GLLEVISALQL, for which the peptide exchange yield lay in the range of 50 to 75%.
The molecule ILVVIEPLL showed a peptide exchange yield of at least 75%.
Turning to ILFNTQINI, the peptide exchange yield was in the range of 50 to 75%.
ILDFGTFQL had a peptide exchange yield of 50 to 75%.
In turn, ILDEIGADVQA registered a peptide exchange yield of 50 to 75%.
Regarding VLIEDELEEL, the peptide exchange yield was 20 to 50%.
With ILNNEVFAI, the peptide exchange yield is 50 to 75%.
Turning to ALLERTGYTL, the peptide exchange yield lay in the range of 50 to 75%.
In turn, VIADLGLIRV had a peptide exchange yield of 50 to 75%.
For the molecule GLDDMKANL, the peptide exchange yield was in the range of 20 to 50%.
In turn, SLAGGLDDMKA yielded a peptide exchange yield of 50 to 75%.
With ILIFHSVAL, the peptide exchange yield fell in the range of 50 to 75%.
For GLSIFAQDLRL the value was 20 to 50%.
In turn, GIIDGSPRL came in with a peptide exchange yield of 50 to 75%.
In turn, ILGYMAHEHKV registered a peptide exchange yield of 20 to 50%.
Consider GLDDVTVEV, for which the peptide exchange yield was in the range of 20 to 50%.
In turn, GLDQQFAGLDL gave a peptide exchange yield of 10 to 20%.
Consider GVMDVNTAL, for which the peptide exchange yield is 20 to 50%.
Regarding GLLRIIPYL, the peptide exchange yield is 50 to 75%.
For the molecule HQIEAVDGEEL, the peptide exchange yield is 20 to 50%.
Turning to ALCDTLITV, the peptide exchange yield lay in the range of 50 to 75%.
In the case of GLKHDIARV, the peptide exchange yield was 50 to 75%.
For GLLRASFLL the value was 20 to 50%; for GLLDAGKMYV, 50 to 75%; for GLSEISLRL, at least 75%.
With GQGEVLVYV, the peptide exchange yield was in the range of 50 to 75%.
The same measure for ILDLNTYNV: 50 to 75%.
Regarding LLFATQITL, the peptide exchange yield lay within 20 to 50%.
The molecule FVLDHEDGLNL returned a peptide exchange yield of 50 to 75%.
In turn, FVFEAPYTL yielded a peptide exchange yield of 50 to 75%.
For ILFPLRFTL the value was 50 to 75%; for ILIDKTSFV, 50 to 75%.
Molecule FVFGDENGTVSL displayed a peptide exchange yield of 50 to 75%.
Regarding HLYPGAVTI, the peptide exchange yield is 50 to 75%.
For ILEPLNPLL the value was 50 to 75%; for ALAASALPALV, 50 to 75%; for KLLESVASA, 50 to 75%.
In the case of HLMLHTAAL, the peptide exchange yield is at least 75%.
The molecule GLHQREIFL displayed a peptide exchange yield of 50 to 75%.
SLAHVAGCEL returned a peptide exchange yield of 50 to 75%.
With FVYFIVREV, the peptide exchange yield lay within 50 to 75%.
For GLQSGVDIGV, the peptide exchange yield fell in the range of 50 to 75%.
With SLIKYFLFV, the peptide exchange yield is 10 to 20%.
As to ALDTLEDDMTI, the peptide exchange yield fell in the range of 50 to 75%.
For FVPDTPVGV the value was 50 to 75%; for YIQQGIFSV, 50 to 75%; for WLVGQEFEL, 50 to 75%.
Molecule GLQAKIQEA returned a peptide exchange yield of 50 to 75%.
